Measurements taken from publication PMC4041915, “CBD binding domain fused γ-lactamase from Sulfolobus solfataricus is an efficient catalyst for (-) γ-lactam production” (BMC Biotechnology, 2014).

Substrate: O=C1NC2C=CC1C2
Assay: purified protein
Conditions: free enzyme, 50 mM phosphate pH 7.0, 70°C (standard assay), 4.6-32.2 mM substrate, racemate taken as the substrate (not stated for the kinetics), only (+) enantiomer hydrolysed

Protein	Km [mM]	Km (preparation has a low-) [mM]
Cbd-Linker-Gla (cbd-linker-gla fusion enzyme; (+) γ-lactamase Gla) (Saccharolobus solfataricus P2) (protein) MGIKLPTLEDLREISKQFNLDLEDEELKSFLQLLKLQLESYERLDSLPDYTPRVKYQRTLGRPPMKEENPYGALVWITSIKGKEEGKLKGKRICIKDNVMIAGIPMLNGSKMLEGFVPHMDATVVSRILDEAGEIVAKTTCEDLCFSGGSHTSYPWPVLNPRNPEYMAGGSSSGSAVAVASGYCDMAVGGDQGGSIRIPSSWVGIYGLKPTHGLVPYTGAFSIEPTLDHLGPMANTVKDVALLLEVIAGRDELDSRQPDSLPPPPVKPYSKLIDGDVKDMKVGIVKEGFNWSNSEKDVDELVLDSAKKLEDYGIKVEDTSIPLHRMGLDIWTPIAIEGATATMILGSGVGWGRKGLFETQIADFFGNSLKSRARDLPNTVKGVLMLGYLMIKMYNNRYYAKARNLSIVLKEAYDSALRKYDALIMPTTPMKAMRYKSEPGFDEYFIMALGMINNTAPFDVTGHPAMNIPVGYSNGLPVGLMIIGRHFEEDKVLKLANVFERIKK	14.3 ± 1.6	
Gla-Linker-Cbd (gla-linker-cbd fusion enzyme; (+) γ-lactamase Gla) (Saccharolobus solfataricus P2) (protein) MGIKLPTLEDLREISKQFNLDLEDEELKSFLQLLKLQLESYERLDSLPDYTPRVKYQRTLGRPPMKEENPYGALVWITSIKGKEEGKLKGKRICIKDNVMIAGIPMLNGSKMLEGFVPHMDATVVSRILDEAGEIVAKTTCEDLCFSGGSHTSYPWPVLNPRNPEYMAGGSSSGSAVAVASGYCDMAVGGDQGGSIRIPSSWVGIYGLKPTHGLVPYTGAFSIEPTLDHLGPMANTVKDVALLLEVIAGRDELDSRQPDSLPPPPVKPYSKLIDGDVKDMKVGIVKEGFNWSNSEKDVDELVLDSAKKLEDYGIKVEDTSIPLHRMGLDIWTPIAIEGATATMILGSGVGWGRKGLFETQIADFFGNSLKSRARDLPNTVKGVLMLGYLMIKMYNNRYYAKARNLSIVLKEAYDSALRKYDALIMPTTPMKAMRYKSEPGFDEYFIMALGMINNTAPFDVTGHPAMNIPVGYSNGLPVGLMIIGRHFEEDKVLKLANVFERIKK		5.7 ± 0.1
